Assay [1] has as its target T1, ELP-N (construct 5).
T1 construct: also called ELP intein N-fragment
In words: co-precipitation with ELP-N by ammonium sulfate.

Assay [2] deals with T1, ELP-N (construct 5). In words: lysates mixed 10 min at room temperature, 0.4 M ammonium sulfate precipitation of the ELP complex, SDS-PAGE.
The target of assay [3] is NC1A-CBD (construct 12). In words: cell-based or functional assay.
For assay [4], the target named is T2, NC1A-CBD (construct 12).
T2 construct: free in solution in the kinetic assays
In words: capture from E. coli lysate on chitin-bound NC1A-CBD, 0.5 mM ZnCl2, SDS-PAGE densitometry.
Procedure: Sample purification via SIRP (FIG. 14): A disposable column containing 150 μL chitin resin was loaded with soluble lysate containing NC1A-CBD in Buffer A (0.5 M NaCl, 10 mM Tris-HCl, pH 8.0) and washed 4 times with 10 column volumes (CV) of Buffer B (0.5 M NaCl, 50 mM NaPOi, pH 6.0). All loading and washing steps were performed in batch phase. The last wash was supplemented with 0.5 mM ZnCl₂. […] The column was subsequently washed with 10 CV of Buffer B with ZnCl₂ (0.5 mM) and finally incubated in 4 CV of Buffer A containing 50 mM DTT at room temperature for 30 min or at 6° C. for 3 h.

B1: C*-CAT (construct 9) (other)
chain: MIKIATRKYLGKQNVYGIGVERDHNFALKNGFIASNCFNASMEKKITGYTTVDISQWHRKEHFEAFQSVAQCTYNQTVQLDITAFLKTVKKNKHKFYPAFIHILARLMNAHPEFRMAMKDGELVIWDSVHPCYTVFHEQTETFSSLWSEYHDDFRQFLHIYSQDVACYGENLAYFPKGFIENMFFVSANPWVSFTSFDLNVANMDNFFAPVFTMGKYYTQGDKVLMPLAIQVHHAVCDGFHVGRMLNELQQYCDEWQGGALEHHHHHH
notes: also called C*-chloramphenicol acetyl transferase
Consider B1, for which the binding result in the assay with ELP-N (construct 5) [1] is listed as “binds”.

B2: C*-PTDH (construct 6) (other)
chain: MIKIATRKYLGKQNVYGIGVERDHNFALKNGFIASNCFNASMLPKLVITHRVHEEILQLLAPHCELITNQTDSTLTREEILRRCRDAQAMMAFMPDRVDADFLQACPELRVIGCALKGFDNFDVDACTARGVWLTFVPDLLTVPTAELAIGLAVGLGRHLRAADAFVRSGKFRGWQPRFYGTGLDNATVGFLGMGAIGLAMADRLQGWGATLQYHARKALDTQTEQRLGLRQVACSELFASSDFILLALPLNADTLHLVNAELLALVRPGALLVNPCRGSVVDEAAVLAALERGQLGGYAADVFEMEDWARADRPQQIDPALLAHPNTLFTPHIGSAVRAVRLEIERCAAQNILQALAGERPINAVNRLPKANPAADLEHHHHHH
notes: also called NpuDnaE C-fragment Asp118Gly fused to phosphite dehydrogenase
As for B2, in the assay with ELP-N (construct 5) [2], the binding result is recorded as “binds”. For the same molecule, the “percent of PTDH cleaved from C*-PTDH within 30 seconds, 1:1 molar ratio, 50 mM DTT, 22 C and 6 C” value in the assay with NC1A-CBD (construct 12) [3] is about 50%. For the same molecule, the “molar ratio of bound C*-POI to NC1A-CBD” value with NC1A-CBD (construct 12) [4] turned out to be 0.35 molar ratio.

The values are drawn from patent US20150353597A1 (TEXAS A AND M UNIVERSITY SYSTEM, published 2015).
